# Experiment: yeast display, Sf9 membrane polyspecificity reagent, FACS + sequencing; frameworks hold sequencing errors
# Summary of the method: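 Polyreactivity labels are assigned by the sorting gate from which each nanobody was recovered. The gates were low and high (top ~1%), set on anti-HA fluorescence for expression and streptavidin fluorescence for reagent binding. Before sorting, galactose-induced (36–48 hours) yeast display cells were stained for 1 hour at 4 °C with 10% biotinylated, detergent-solubilized Sf9 membrane reagent.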
row,Sequence,polyreactivity (PSR sort gate)
1,QVQLVESGGGLVQAGGSLRLSCAASGRTFVVYAMGWYRQAPGKERELVAVIRVIGGSTNYADSVKGRFTISRDNAKNTVYLQMNSLKPEDTAVYYCAADGVVVVAADMYYWGQGTQVTVSS,low polyreactivity
2,QVQLVESGGGLVQAGGSLRLSCAASGRTFVWNAMGWYRQAPGKERELVAAIDWSGGSTYYADSVKGRFTISRDNAKNTVYLQMNSLKPEDTAGYYCAKEYWYRALWYNYWGQGTQVTVSS,high polyreactivity
3,QVQLVESGGGLVQAGGSLRLSCAASGRTFVWNAMGWYRQAPGKERELVAAISSSGTSTYYADSVKGRFTISRDNAKNTVYLQMNSLKPEDTAVYYCAKDLLYQPTIRDYWGQGTQVTVSS,low polyreactivity
4,QVQLVESGGGLVQAGGSLRLSCAASGRTFVYNAMGWYRQAPGIERELVAAITTSGASTYYADSVKGRFTISRDNAKNTVYLQMNSLKPEDTAVYDCNAYSRYSYGRTYGYWGQGTQVTVSS,high polyreactivity
5,QVQLVESGGGLVQAGGSLRLSCAASGRTFVYNAMGWYRQAPGKERELVATITFSGGSTYYADSVKGRFTISRDNAKNTVYLQMNSLKPEDTAVYYCNTQGVHHYYHAPQVRGYDYWGQGTQVTVSS,low polyreactivity
6,QVQLVESGGGLVQAGGSLRLSCAASGRTFVYNVMGWYRQAPGKERELVAAISSGGSTNYADSVKGRFTISRDNGKNTVYVQMNSLKPEDTAVYYCNAGTLYYRYRWGHYYDSWGQGTQVTVSS,low polyreactivity
7,QVQLVESGGGLVQAGGSLRLSCAASGRTFVYTMGWYRQAPGKERELVAAIRYSGGRTYYADSVKGRFTISRDNAKNTVYLQMNSLKPEDTAVYYCAARNYATGVRYDYWGQGTQVTVSS,high polyreactivity
8,QVQLVESGGGLVQAGGSLRLSCAASGRTFVYYAMGWYRQAPGKEREFVATISDGGGTYYADSVKGRFTISRDNAKNTVYLQMNSMNPEDSAVYYCNARGTPWRYGGDYWGQGTQVTVSS,low polyreactivity
9,QVQLVESGGGLVQAGGSLRLSCAASGRTFVYYAMGWYRQAPGKEREFVATITSSGGSTYYADSVKGRFTISRDNAKNTVYLQMNSLKPEDTAVYYCSASPYIRYSKVSKYYYWGQGTQVTVSS,high polyreactivity
10,QVQLVESGGGLVQAGGSLRLSCAASGRTFWANAMGWYRQAPGKERELVAAINYSGGRTYYADSVKGRFTISRDNAKNTVYLQMNSLKPEDTAVYYCNVVHGGAISDYWGQGTQVTVSS,high polyreactivity
11,QVQLVESGGGLVQAGGSLRLSCAASGRTFWAYAMGWYRQAPGKERELVAAITASGTRTYYADSVKGRFTISRDNAKNTVYLQMNSLKPEDTAVYYCAAERIWWAHAYPTYVANDYWGQGTQVTVSS,high polyreactivity
12,QVQLVESGGGLVQAGGSLRLSCAASGRTFWFYGMGWYRQAPGKERELVADITSGGGTYYADSVKGRFTISRDNAKNTVYLQMNSLKPEDTAVYYCNAYKTHVVPATYDSEEYWGQGTQVTVSS,low polyreactivity
13,QVQLVESGGGLVQAGGSLRLSCAASGRTFWGNAMGWYRQAPGKERELVASISSRGSSTYYADSVKGRFTISRDNAKNTVYLQMNSLKPEDTAVYYCAARTHYFPWPWYVWDYDSWGQGTQVTVSS,low polyreactivity
14,QVQLVESGGGLVQAGGSLRLSCAASGRTFWLYAMGWYRQAPGKARELVASITRDGTSTYYADSVKGRFTISRDNPKNTVYLQMNSLKPEDTAVYYCAAVYHSKSRTIYWGQGTQVTVSS,high polyreactivity
15,QVQLVESGGGLVQAGGSLRLSCAASGRTFWLYAMGWYRQAPGKEREFVASISSSGDSTYYADSVKGRFTISRDNAKNTVYLQMNSLKPEDTAVYYCAARPSRRYLRNGLDYWGQGTQVTVSS,high polyreactivity
16,QVQLVESGGGLVQAGGSLRLSCAASGRTFWNYAMGWYIQAPGKEREFVAVIRFSDGSTYYADSVKGRFTISRDNAKNTVYLQMNSLKPEDTAVYYCAAKGPRRWGSGFDYWGQGTQLTVSS,low polyreactivity
17,QVQLVESGGGLVQAGGSLRLSCAASGRTFWRNTMGWYRQAPGKQREFVAASTFSGVRTYYADSVKGRFTISRDNAKNTVYLQMNSLKPEDTAVYYCAKSRQYIGGFDYWGQGTQVTVSS,high polyreactivity
18,QVQLVESGGGLVQAGGSLRLSCAASGRTFWRYAMGWYRQAPGKERELVAAISSGGRTNYADSVKGRFTISRDNAKNTVYLQMNSLKPEDTAVYYCAVKTVRSSSRNYWGQGTQVTVSS,high polyreactivity
19,QVQLVESGGGLVQAGGSLRLSCAASGRTFWSNAMGWYRQAPGKEREFVAVISRSGSTTYYADSVKGRYTISRDNAKKTVYLQMISLKPEDTAFYNCAADRVRSYFSRYYSTPLDYYWGQGTQVTVSS,high polyreactivity
20,QVQLVESGGGLVQAGGSLRLSCAASGRTFWSNAMGWYRQAPGKERELVAAISGGARTNYADSVKGRFTISRDNAKNTVYLQMNSLKPEDTAVYYCAATPRYWQSRYDYWGQGTQVTVSS,high polyreactivity
21,QVQLVESGGGLVQAGGSLRLSCAASGRTFWSYAMGWYRQAPGKEREFVAAISYSGSSTYADSVKGRFTISRDNAKNTVYLQMNSLKPEDTAVYYLLRGQGTQVTVSS,low polyreactivity
22,QVQLVESGGGLVQAGGSLRLSCAASGRTFWVNAMGSYRQAPGKERELVATIRGSGVSTYYADSVKGRFTISRDNAKNTVYLQMNSLKPEDTAVYYCAAGFAGGYGVTFDYCGQGTQVTVSS,low polyreactivity

row,Sequence,polyreactivity (PSR sort gate)
1,QVQLVESGGGLVQAGGSLRLSCAASGRTFWVNTMGWYRQAPGKERELVAGITRSGTRTYYADSVKGRFTISRDNAKNTVYLQMNSLKPEDTAVYYCATGPWRYRYDYWGQGTQVTVSS,low polyreactivity
2,QVQLVESGGGLVQAGGSLRLSCAASGRTFWVYAMGWNRQATGKERELVATISKSAGITSYADSVKGRFTFSRDNAKNTVYLQMNSLKPEDTAVYYCAADKSYRRVYYWGQGTQVTVSS,low polyreactivity
3,QVQLVESGGGLVQAGGSLRLSCAASGRTFWVYAMGWYRQAPGKEREFVAAISGSVGSTYYADSVKGRFTISRDNAMKTVYLQMNSLKPEDTAVYYCAARQRRSEYGYWGQGTQVTVSS,high polyreactivity
4,QVQLVESGGGLVQAGGSLRLSCAASGRTFWVYAMGWYRQAPGKERELVASIRRGGSTYYADSVKGRFTISRDNAKNTVYLQMNSLKPEDTAVYYCAAERPYKTFGYGYWGQGTQVTVSS,high polyreactivity
5,QVQLVESGGGLVQAGGSLRLSCAASGRTFWYNAMGWYRQAPGKERELVATISPGGRTYYADSVKGRFTISRDNAKNTVYLQMNSVKPEDTAVYYCDASSSFSRYGVVPYYYWGQGTQVTVSS,high polyreactivity
6,QVQLVESGGGLVQAGGSLRLSCAASGRTFWYYAMGWSRQAPGKERELVAGITFTGGRTYYADSVKGRFTISRDNAKNTVYLQMNSLKPEDTAVYYCAAAGLDVGRKDRDGYWGQGTQVTVSS,low polyreactivity
7,QVQLVESGGGLVQAGGSLRLSCAASGRTFWYYAMGWYRQAPGKERELVAAISYSGDGTYYADSVKGRVTISRDNAKNTVYLPMHSLKPEDTAVYYCAAEWYEPTLPTAWSEYEYWGQGTQVTVSS,high polyreactivity
8,QVQLVESGGGLVQAGGSLRLSCAASGRTFWYYAMGWYRQAPGKERELVARISTGGSTNYADSVKGRFTISRDNAKNTVYLQMNSLKPEDTAVYYCAARPVWRRPSKFDYWGQGTQVTVSS,high polyreactivity
9,QVQLVESGGGLVQAGGSLRLSCAASGRTFWYYGMGWYRQAPGKERELVAAISRSGGRTYYADSVKGRFTISRDNAKNTVYLQMNSLKPEDTAVYYCVASYRRTFDYWGHGTQVTVSS,high polyreactivity
10,QVQLVESGGGLVQAGGSLRLSCAASGRTFWYYTMGWYRQAPGKEREFVAAIRGSGTSTYYADSGKARFTISRDNAKNNVYLQMNSLKPEDTAVYYCAAESPVYHLVTYDYWGQGTQVTVSW,high polyreactivity
11,QVQLVESGGGLVQAGGSLRLSCAASGRTFWYYTMGWYRQAPGKERELVAAITRRGGSTYYADSVKGRFTLSRDKAKNTVYLQMNSLKPEDTAVYYCARGGSRLTQGWLVTPYDYDYWGQGTQVTVSS,high polyreactivity
12,QVQLVESGGGLVQAGGSLRLSCAASGRTFWYYTMGWYRQAPGKERELVAAITSGGSTYYADSVKGRFTISRDNAKNTVYLQMNSLKPEDTAVYYCAAYLYWDFTYYYALVDYWGQGTQVTVSS,high polyreactivity
13,QVQLVESGGGLVQAGGSLRLSCAASGRTFWYYTMGWYRQAPGKERELVASITYRGGSTYYADSVKGRFTISRDNAKNTDYLQMNSLKPEDTAVYYCNARYKRYSYDYWGQGTQVTVSS,high polyreactivity
14,QVQLVESGGGLVQAGGSLRLSCAASGRTFYANTMGWYRPAPGKERELVASITSRGTSTYYADSVKGRFTISRDNAKNTVYLEMNSLKPEDTAVYYCAKAFIAPQYAWGGDYWGQGTQVTVSS,high polyreactivity
15,QVQLVESGGGLVQAGGSLRLSCAASGRTFYAYAMGLYRQAPGKERELVASIRWSSGSTNYADSVKRRFTISRDYAKITVYLQMNILKAEDTAVYYCAARYYYYGGHRLYWGQGTQLTVSS,high polyreactivity
16,QVQLVESGGGLVQAGGSLRLSCAASGRTFYAYAMGWYRQAPGKERELVAAITSGASTYYADSVKGRFTISRDNAKNTVYLQMNRLKPEDTAVYYCAKRVRYYKPGYDYWGQGTQVTVSS,low polyreactivity
17,QVQLVESGGGLVQAGGSLRLSCAASGRTFYDYAMGWYRQAPGKERELVASITGGASTNYADSVKGRFTISRDNAKNTVYLQMNSLKPEDTAVYYCAGRLYRGNVWDILLGGDYWGQGTQVTVSS,low polyreactivity
18,QVQLVESGGGLVQAGGSLRLSCAASGRTFYFNAMGWYRQAPGKERELVAGISGDGSTNYADSVKGRFTISRDNAKNTVYLQMNSLKPEDTAVYYCAARIRPGYRTWYYSWGQGTQVTVSS,low polyreactivity
19,QVQLVESGGGLVQAGGSLRLSCAASGRTFYFNGMGWSRQAPGKETELVAVITKSGGDTYYADSVKGRFTISRDNAKNTVYLQMNSLKPEDTAVYYCAAVYGYYTYWIPGFTWAVDYWGQGTQVTVSS,low polyreactivity
20,QVQLVESGGGLVQAGGSLRLSCAASGRTFYFNGMGWYRQAPGKERELVAAIRWRDSNTYYADSVKGRFTISRDNAKNTVYLQMNSLKPEDTAVYYCNVGIYSYGINGRYDYWGQGTQVTVSS,high polyreactivity
21,QVQLVESGGGLVQAGGSLRLSCAASGRTFYFNGMGWYRQAPGQERELVARISRRGGSTYYADSVKGRFTISRDNAKNTVYLQMNSLKPEDTAVYYCNTANYLLYDWGQGTQVNVSS,high polyreactivity

# Reference: the nanobody polyreactivity screen of Harvey et al. (2022)
